Biological target: T1, transferrin receptor (TfR) (human, UniProt P02786 1-760)
T1 construct: whole, on cells; also called 100 and 200 kDa proteins
Assay: immunoprecipitation of surface-biotinylated 293 cell proteins with HFE or FLAG antibodies
Experimental: Cell surface protein biotinylations. Cells (4×10⁶) were seeded into 100 mm dishes and grown overnight to 80% confluency. The plates were moved to 4° C. and gently washed four times with PBS. Suflo-NHS-LC Biotin (Pierce) was added in PBS to a final concentration of 500 g/ml and incubated on ice for 30 mins. The Biotin reagent was removed and the plates washed 4 times with PBS containing 50 mM glycine. Cells were lysed in 500 ml of 25 mM Tris-HCL, pH 7.5 150 mM NaCl plus 0.5% NP-40. […] Precipitated proteins were separated on 4-20% Tris-glycine polyacrylamide gels (Novex), electroblotted to PVDF membranes (Novex) and biotinylated proteins were visualized with 2 μg/ml of streptavidin-HRP (Pierce) followed by ECL detection reagents (Amersham).
Biotinylated proteins were detected with streptavidin-conjugated horseradish peroxidase (HRP).

T1 sequence (P02786 whole entry): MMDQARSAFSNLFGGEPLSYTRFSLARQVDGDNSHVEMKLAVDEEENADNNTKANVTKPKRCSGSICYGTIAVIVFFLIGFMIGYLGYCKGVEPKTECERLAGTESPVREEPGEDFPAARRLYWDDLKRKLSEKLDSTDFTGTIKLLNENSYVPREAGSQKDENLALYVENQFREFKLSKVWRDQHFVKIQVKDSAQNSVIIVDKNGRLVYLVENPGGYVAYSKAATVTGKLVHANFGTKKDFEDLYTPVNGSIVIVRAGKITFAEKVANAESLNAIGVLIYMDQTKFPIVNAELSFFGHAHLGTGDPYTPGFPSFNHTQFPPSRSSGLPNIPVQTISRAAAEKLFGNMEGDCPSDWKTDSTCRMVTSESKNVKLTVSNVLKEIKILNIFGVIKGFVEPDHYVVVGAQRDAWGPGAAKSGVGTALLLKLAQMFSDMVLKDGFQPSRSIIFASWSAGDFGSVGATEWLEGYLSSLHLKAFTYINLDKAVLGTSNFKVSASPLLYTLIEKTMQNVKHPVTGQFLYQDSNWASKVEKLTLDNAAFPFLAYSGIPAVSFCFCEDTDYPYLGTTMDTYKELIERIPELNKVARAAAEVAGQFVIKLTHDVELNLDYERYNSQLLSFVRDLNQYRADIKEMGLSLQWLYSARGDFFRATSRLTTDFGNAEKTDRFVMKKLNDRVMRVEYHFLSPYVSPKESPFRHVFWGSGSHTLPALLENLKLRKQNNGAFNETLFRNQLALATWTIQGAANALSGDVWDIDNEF

binding result: no binding
B1: C282Y HFE mutant over-expressed in 293 cells (other, UniProt Q30201 23-348, looked up)
MHC heavy: RLLRSHSLHYLFMGASEQDLGLSLFEALGYVDDQLFVFYDHESRRVEPRTPWVSSRISSQMWLQLSQSLKGWDHMFTVDFWTIMENHNHSKESHTLQVILGCEMQEDNSTEGYWKYGYDGQDHLEFCPDTLDWRAAEPRAWPTKLEWERHKIRARQNRAYLERDCPAQLQQLLELGRGVLDQQVPPLVKVTHHVTSSVTTLRCRALNYYPQNITMKWLKDKQPMDAKEFEPKDVLPNGDGTYQGWITLAVPPGEEQRYTYQVEHPGLDQPLIVIWEPSPSGTLVIGVISGIAVFVVILFIGILFIILRKRQGSRGAMGHYVLAERE
notes: also called C282Y mutant

From patent US20060287236A1 (BIO RAD LABORATORIES, published 2006)
